Data: article PMC6269214 (Biochimica et biophysica acta. Proteins and proteomics, 2018)

Tests used:
SEC = biological target: the molecule itself; experiment: SEC
SEC-MALS = biological target: the molecule itself; experiment: SEC-MALS

B1: cavsol (full-length, soluble human caveolin-1 variant gen-2d) (other)
chain: MSGGKYVDSEGHLYTVPIREQGNIYKPNNKAMADELSEKQVYDAHTKEIDLVNRDPKHLNDDVVKIDFEDVIAEPEGTHSFDGIWKASFTTFTVTKYWFYRLLSAHEGIPMALSRGVEVAQVSDHHIRADDPCIKSFLIEIQCISRVYSIYVHTVCDPLFEAVGKIFSNVRINLQKEI
- stoichiometry N (SEC): 24 monomers
- stoichiometry N (SEC-MALS): ~90 cav monomers
